Reference: US20250034271A1

Molecular target: Histidine-tagged human CD40 protein (hCD40-His) (human) (UniProt P25942)
Assay: SPR, Biacore T200; antibody on Protein A chip, hCD40-His injected; 1:1 fit

Chain of Histidine-tagged human CD40 protein (hCD40-His) (human) (P25942 21-193 limits assumed): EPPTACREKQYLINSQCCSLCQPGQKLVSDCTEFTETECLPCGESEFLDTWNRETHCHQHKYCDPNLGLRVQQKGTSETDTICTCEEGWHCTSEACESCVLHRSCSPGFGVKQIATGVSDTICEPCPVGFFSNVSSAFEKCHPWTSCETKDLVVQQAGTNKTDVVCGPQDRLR

Kd: 20 nM
koff: 0.00833 s⁻¹
kon: 417000 M⁻¹ s⁻¹
B1: Dacetuzumab (antibody, part only; not given: constant regions, V domains shown, not shown: another chain or arm of the molecule)
VH: EVQLVESGGGLVQPGGSLRLSCAASGYSFTGYYIHWVRQAPGKGLEWVARVIPNAGGTSYNQKFKGRFTLSVDNSKNTAYLQMNSLRAEDTAVYYCAREGIYWWGQGTLVTVSS
VL: DIQMTQSPSSLSASVGDRVTITCRSSQSLVHSNGNTFLHWYQQKPGKAPKLLIYTVSNRFSGVPSRFSGSGSGTDFTLTISSLQPEDFATYFCSQTTHVPWTFGQGTKVEIK
